Measurements: US20260146077A1 (US Dept. of Health and Human Services, published 2026)
Read-outs that look alike come from different tables or passages of the source.

Legend:
Experiment in all cases: cell-based or functional assay
[1] = target: T1, SARS-CoV-2 spike protein, BA.1 (SARS-CoV-2, UniProt P0DTC2 14-1273)
[2] = target: T2, SARS-CoV-2 spike protein, B.1.617.2 (SARS-CoV-2, UniProt P0DTC2 14-1273)
[3] = target: T3, SARS-CoV-2 spike protein, B.1.351 (SARS-CoV-2, UniProt P0DTC2 14-1273)
[4] = target: T1, SARS-CoV-2 spike protein, BA.1; remark: listed apart in the source
[5] = target: T2, SARS-CoV-2 spike protein, B.1.617.2; remark: listed apart in the source
[6] = target: T3, SARS-CoV-2 spike protein, B.1.351; remark: listed apart in the source
[7] = target: T1, SARS-CoV-2 spike protein, BA.1; remark: listed apart in the source
[8] = target: SARS-CoV-2 spike protein, BA.2.12.1 (SARS-CoV-2, UniProt P0DTC2 14-1273)

| Binder | BA.1 neutralization, fold improvement over B1-182.1 [1] [fold] | neutralization IC50 [2] [µg/mL] | neutralization IC80 [2] [µg/mL] | neutralization IC50 [3] [µg/mL] | neutralization IC80 [3] [µg/mL] | neutralization IC50 [4] [µg/mL] | neutralization IC80 [4] [µg/mL] | BA.1 neutralization, fold improvement over A19-58.1 [1] [fold] | neutralization IC50 [5] [µg/mL] | neutralization IC80 [5] [µg/mL] | neutralization IC50 [6] [µg/mL] | neutralization IC80 [6] [µg/mL] | neutralization IC50 [7] [µg/mL] | neutralization IC80 [7] [µg/mL] | neutralization IC50 [8] [µg/mL] | neutralization IC80 [8] [µg/mL] | pseudovirus neutralization IC50 [1] [µg/mL] |
| --- | --- | --- | --- | --- | --- | --- | --- | --- | --- | --- | --- | --- | --- | --- | --- | --- | --- |
| B1-182.1HC/182.1LC_95LTG (antibody, V domains shown) VH: not shown VL: EIVLTQSPGTLSLSPGERATLSCRASQSVSSSYLAWYQQKPGQAPRLLIYGASSRATGFPDRFSGSGSGTDFTLTISRLEPEDFAVYYCQQYGNLTGWTFGQGTKVEIR | > 9 | 0.0068 | 0.0151 | 0.0072 | 0.014 | 0.0206 | 0.118 | – | – | – | – | – | – | – | – | – | – |
| A23-58.1HC_Y100cA/58.1LC_94GLTG (antibody, V domains shown) VH: not shown VL: EIVLTQSPGTLSLSPGERATLSCRASQSVSSSYLAWYQQKPGQAPRLLIYSASSRATGIPDRFSGSGSGTDFTLTISRLEPEDFAVYFCQQYGGLTGWTFGQGTKVEIK | – | – | – | – | – | – | – | > 25 | 0.0131 | 0.0165 | 0.0023 | 0.0063 | 0.0038 | 0.016 | 0.0193 | 0.051 | – |
| A23-58.1HC_Y100cA/58.1LC_93VGLTG (antibody, V domains shown) VH: not shown VL: EIVLTQSPGTLSLSPGERATLSCRASQSVSSSYLAWYQQKPGQAPRLLIYSASSRATGIPDRFSGSGSGTDFTLTISRLEPEDFAVYFCQQYVGLTGWTFGQGTKVEIK | – | – | – | – | – | – | – | > 6 | 0.003 | 0.0098 | 0.0011 | 0.0043 | 0.0155 | 0.0419 | 0.0242 | 0.0621 | – |
| B1-182.1HC_F100cS/182.1LC_93VGLTG (antibody, V domains shown) VH: not shown VL: EIVLTQSPGTLSLSPGERATLSCRASQSVSSSYLAWYQQKPGQAPRLLIYGASSRATGFPDRFSGSGSGTDFTLTISRLEPEDFAVYYCQQYVGLTGWTFGQGTKVEIR | > 9 | – | – | – | – | – | 0.0909 | – | – | – | – | – | – | – | – | – | 0.0228 |
| A23-58.1HC/58.1LC_95LTG (antibody, V domains shown) VH: not shown VL: EIVLTQSPGTLSLSPGERATLSCRASQSVSSSYLAWYQQKPGQAPRLLIYSASSRATGIPDRFSGSGSGTDFTLTISRLEPEDFAVYFCQQYGTLTGWTFGQGTKVEIK | – | – | – | – | – | – | – | 5 | 0.0028 | 0.0116 | 0.0035 | 0.0091 | 0.0214 | 0.0454 | – | – | – |
| B1-182.1HC/182.1LC_96TG (antibody, V domains shown) VH: not shown VL: EIVLTQSPGTLSLSPGERATLSCRASQSVSSSYLAWYQQKPGQAPRLLIYGASSRATGFPDRFSGSGSGTDFTLTISRLEPEDFAVYYCQQYGNSTGWTFGQGTKVEIR | > 9 | 0.004 | 0.0084 | 0.0044 | 0.0143 | 0.0206 | 0.0857 | – | – | – | – | – | – | – | – | – | – |
| A23-58.1HC/58.1LC_F88Y-93VGLTG (antibody, V domains shown) VH: not shown VL: EIVLTQSPGTLSLSPGERATLSCRASQSVSSSYLAWYQQKPGQAPRLLIYSASSRATGIPDRFSGSGSGTDFTLTISRLEPEDFAVYYCQQYVGLTGWTFGQGTKVEIK | – | – | – | – | – | – | – | > 10 | 0.006 | 0.0162 | 0.0023 | 0.0088 | 0.0093 | 0.0426 | 0.0099 | 0.0422 | – |
| A23-58.1HC/58.1LC_96+G (antibody, V domains shown) VH: not shown VL: EIVLTQSPGTLSLSPGERATLSCRASQSVSSSYLAWYQQKPGQAPRLLIYSASSRATGIPDRFSGSGSGTDFTLTISRLEPEDFAVYFCQQYGTSPGWTFGQGTKVEIK | – | – | – | – | – | – | – | – | 0.0046 | 0.0112 | 0.0105 | 0.0292 | 0.133 | 0.917 | – | – | – |
| B1-182.1HC_F100cS/182.1LC_94GLTG (antibody, V domains shown) VH: not shown VL: EIVLTQSPGTLSLSPGERATLSCRASQSVSSSYLAWYQQKPGQAPRLLIYGASSRATGFPDRFSGSGSGTDFTLTISRLEPEDFAVYYCQQYGGLTGWTFGQGTKVEIR | > 46 | 0.0018 | 0.0052 | 0.0022 | 0.0049 | 0.0042 | 0.0167 | – | – | – | – | – | – | – | – | – | – |
| A23-58.1HC/58.1LC_96TG (antibody, V domains shown) VH: not shown VL: EIVLTQSPGTLSLSPGERATLSCRASQSVSSSYLAWYQQKPGQAPRLLIYSASSRATGIPDRFSGSGSGTDFTLTISRLEPEDFAVYFCQQYGTSTGWTFGQGTKVEIK | – | – | – | – | – | – | – | > 3 | 0.0054 | 0.0131 | 0.0027 | 0.0066 | 0.0294 | 0.0658 | – | – | – |
| A23-58.1HC/58.1LC_F88Y-94GLTG (antibody, V domains shown) VH: not shown VL: EIVLTQSPGTLSLSPGERATLSCRASQSVSSSYLAWYQQKPGQAPRLLIYSASSRATGIPDRFSGSGSGTDFTLTISRLEPEDFAVYYCQQYGGLTGWTFGQGTKVEIK | – | – | – | – | – | – | – | > 3 | 0.0063 | 0.0188 | 0.0044 | 0.0116 | 0.0261 | 0.0919 | 0.0417 | 0.0956 | – |
| B1-182.1HC/182.1LC_94GLTG (antibody, V domains shown) VH: not shown VL: EIVLTQSPGTLSLSPGERATLSCRASQSVSSSYLAWYQQKPGQAPRLLIYGASSRATGFPDRFSGSGSGTDFTLTISRLEPEDFAVYYCQQYGGLTGWTFGQGTKVEIR | > 13 | 0.0041 | 0.0086 | 0.0023 | 0.0063 | 0.0142 | 0.0623 | – | – | – | – | – | – | – | – | – | – |
| A23-58.1HC/58.1LC_93VGLT (antibody, V domains shown) VH: not shown VL: EIVLTQSPGTLSLSPGERATLSCRASQSVSSSYLAWYQQKPGQAPRLLIYSASSRATGIPDRFSGSGSGTDFTLTISRLEPEDFAVYFCQQYVGLTWTFGQGTKVEIK | – | – | – | – | – | – | – | > 20 | 0.0009 | 0.0024 | 0.001 | 0.0032 | 0.0048 | 0.0187 | 0.0091 | 0.0431 | – |
| B1-182.1HC/182.1LC_93VGLT (antibody, V domains shown) VH: not shown VL: EIVLTQSPGTLSLSPGERATLSCRASQSVSSSYLAWYQQKPGQAPRLLIYGASSRATGFPDRFSGSGSGTDFTLTISRLEPEDFAVYYCQQYVGLTWTFGQGTKVEIR | – | – | – | – | – | 0.297 | 3.19 | – | – | – | – | – | – | – | – | – | – |
| A23-58.1HC_Y100cA/58.1LC_93VGLT (antibody, V domains shown) VH: not shown VL: EIVLTQSPGTLSLSPGERATLSCRASQSVSSSYLAWYQQKPGQAPRLLIYSASSRATGIPDRFSGSGSGTDFTLTISRLEPEDFAVYFCQQYVGLTWTFGQGTKVEIK | – | – | – | – | – | – | – | – | – | – | – | – | 0.306 | 2.54 | 0.48 | 2.05 | – |
